Test results: patent US20210171611A1 (SEOUL NATIONAL UNIVERSITY R AND DB FOUNDATION, published 2021)

B1: Ab10 scFv (scFv)
scFv: ELVMTQSPSSLSASVGDTVTITCRASQSIYTYLNWYHQTPGKAPKLLISAASSLQSGVPSRFSGSGSGTDFTLTISSLQPEDFATYYCQQYADVPVTFGGGTKLEIKGGSSRSSSSGGGGSGGGGEVQLVESGGGVVQPGRSLRLSCAASGFTFSGYGIHWVRQAPGKGLEWVALISYDGSNKYYADSVKGRFTISRDNSKNTLYLQMNSLRAEDTAVYYCAKDRDYFGSGFFDYWGQGTLVTVSS
B2: Ab9 scFv (scFv)
scFv: ELELTQPPSVSGTPGKRVSMSCSGSRSNIGGNVVNWYQQLPGKAPKLFIYNNDQRPSGVPDRVSGSKSGTSVSVAISGLQPEDEADYYCAAWDDILNGVVFGGGTQLTVLGGGSSRSSSSGGGGSGGGGQVQLVQSGAEVKKPGESLKISCKGSGYNFTNYWIGWVRQLPGKGLEWMGIIYPGDSDTRYSPSFQGQVTISADKSISTAYLQWSSLKASDTAMYYCARIRVIGFYDSSPPPLFDYWGQGTLVTVSS
B3: Ab8 scFv (scFv)
scFv: ELALTQPPSVSVAPAMTAKITCGGDDIGSTTVQWYQQTSGQAPVLVVYDDSDRPSGIPERFSGANSGNTATLTISRVEAGDEADYYCQVWDGRSDHVVFGGGTKLTVLGGGSSRSSSSGGGGSGGGGQVQLVQSGAEVKKPGESLKISCKGSGYIFTNYWIGWVRQMPGKGLEWMGIIYPGDSDTRYSPSFQGQVTISADRSISTANLQWSSLKASDTALYYCARLKLRGFSGGYGSGRRYFDYWGQGTLVTVSS

biological target: T1, recombinant SFTS virus glycoprotein Gn fused to human Ig k-chain constant region (severe fever with thrombocytopenia …, UniProt P01834 1-107); experiment: ELISA on recombinant glycoprotein (Gn-Ck coated, Example 5)
T1 construct: also called Gn-Ck

Binder | binding result
B1 | binds
B2 | binds
B3 | binds
